Assay results published in the Human Domainome abundance scans (Beltran et al. 2025).
± gives the uncertainty stated by the source.

B1: Tripartite motif-containing protein 6, residues 93 to 134; numbered along this chain, Q9C030 (parent)
chain: KAVLCADHGEKLQLFCQEDGKVICWLCERSQEHRGHHTFLVE

Variants of: B1
Experiment: abundance fitness (aPCA) (normalised: wild type 0, dead -1); higher = more abundant; growth selection in yeast, the domain comes from the species named
Details: Homo sapiens

In order of falling abundance fitness:
1. K11W  0.339 ± 0.15
2. G9N  0.332 ± 0.38
3. K11P  0.315 ± 0.24
4. K1D  0.292 ± 0.18
5. L4N  0.224 ± 0.19
6. L12A  0.204 ± 0.048
7. A2G  0.198 ± 0.045
8. A2E  0.195 ± 0.055
9. L4M  0.195 ± 0.064
10. D7Q  0.172 ± 0.071
11. D7T  0.165 ± 0.07
12. K11S  0.155 ± 0.064
13. K11D  0.142 ± 0.074
14. V3M  0.141 ± 0.069
15. L4F  0.141 ± 0.09
16. A2T  0.136 ± 0.046
17. D7L  0.132 ± 0.058
18. V3G  0.127 ± 0.041
19. K11E  0.103 ± 0.092
20. V3C  0.098 ± 0.13
21. D7A  0.095 ± 0.046
22. L12C  0.092 ± 0.077
23. D7M  0.091 ± 0.068
24. A2R  0.067 ± 0.047
25. A2N  0.066 ± 0.27
26. A2V  0.065 ± 0.051
27. D7C  0.055 ± 0.085
28. A6S  0.055 ± 0.056
29. D7E  0.048 ± 0.053
30. L4Y  0.047 ± 0.23
31. V3K  0.046 ± 0.058
32. K11A  0.029 ± 0.1
33. L4V  0.011 ± 0.05
34. D7S  0.006 ± 0.056
35. V3T  0.005 ± 0.067
36. K1E  0 ± 0.055
37. V3S  -0.003 ± 0.061
38. V3A  -0.007 ± 0.054
39. D7K  -0.007 ± 0.061
40. K11N  -0.007 ± 0.08
41. E10F  -0.01 ± 0.077
42. K1Y  -0.01 ± 0.17
43. A6K  -0.011 ± 0.055
44. K11G  -0.012 ± 0.16
45. A2L  -0.013 ± 0.06
46. A2I  -0.018 ± 0.12
47. E10R  -0.019 ± 0.058
48. E10Y  -0.031 ± 0.068
49. G9Q  -0.032 ± 0.048
50. D7I  -0.034 ± 0.25
51. A6R  -0.035 ± 0.044
52. G9S  -0.042 ± 0.061
53. K11R  -0.042 ± 0.062
54. K11V  -0.055 ± 0.2
55. A6P  -0.056 ± 0.1
56. D7R  -0.06 ± 0.051
57. G9A  -0.061 ± 0.037
58. L4T  -0.066 ± 0.054
59. G9R  -0.066 ± 0.039
60. V3E  -0.067 ± 0.09
61. K11I  -0.073 ± 0.089
62. E10D  -0.075 ± 0.16
63. L4R  -0.082 ± 0.043
64. D7N  -0.085 ± 0.17
65. G9D  -0.087 ± 0.14
66. A6Q  -0.087 ± 0.066
67. E10Q  -0.1 ± 0.059
68. K11T  -0.101 ± 0.18
69. L12E  -0.109 ± 0.053
70. A6D  -0.11 ± 0.058
71. K11F  -0.113 ± 0.12
72. L4E  -0.126 ± 0.066
73. V3I  -0.135 ± 0.1
74. K1S  -0.142 ± 0.11
75. L4K  -0.148 ± 0.085
76. A2Y  -0.153 ± 0.11
77. V3Y  -0.153 ± 0.21
78. K1M  -0.156 ± 0.082
79. A6C  -0.156 ± 0.073
80. A6F  -0.158 ± 0.071
81. G9M  -0.162 ± 0.052
82. E10C  -0.163 ± 0.1
83. E10G  -0.165 ± 0.041
84. L4A  -0.165 ± 0.051
85. A2C  -0.167 ± 0.089
86. D7W  -0.173 ± 0.05
87. L4G  -0.175 ± 0.041
88. G9E  -0.179 ± 0.044
89. E10A  -0.185 ± 0.15
90. L4C  -0.189 ± 0.09
91. A6Y  -0.19 ± 0.12
92. K1V  -0.191 ± 0.083
93. K1G  -0.193 ± 0.043
94. A6G  -0.196 ± 0.043
95. L4W  -0.199 ± 0.047
96. K11L  -0.2 ± 0.18
97. A6L  -0.215 ± 0.052
98. L4S  -0.217 ± 0.059
99. L4D  -0.223 ± 0.49
100. G9C  -0.237 ± 0.27
101. G9L  -0.238 ± 0.038
102. A6T  -0.242 ± 0.087
103. A6E  -0.244 ± 0.11
104. K1T  -0.255 ± 0.42
105. L4Q  -0.272 ± 0.065
106. V3R  -0.273 ± 0.057
107. K1A  -0.273 ± 0.17
108. H8Q  -0.275 ± 0.08
109. G9H  -0.287 ± 0.21
110. D7G  -0.291 ± 0.043
111. K1R  -0.296 ± 0.053
112. K1N  -0.296 ± 0.22
113. D7P  -0.297 ± 0.088
114. K11Q  -0.3 ± 0.26
115. G9W  -0.301 ± 0.049
116. V3Q  -0.306 ± 0.092
117. A6N  -0.306 ± 0.28
118. E10S  -0.319 ± 0.069
119. K1Q  -0.32 ± 0.23
120. A6I  -0.321 ± 0.2
121. V3H  -0.349 ± 0.17
122. V3W  -0.353 ± 0.083
123. K1F  -0.36 ± 0.2
124. D7F  -0.38 ± 0.29
125. E10W  -0.406 ± 0.048
126. G9T  -0.407 ± 0.083
127. H8K  -0.419 ± 0.091
128. A6H  -0.43 ± 0.47
129. V3L  -0.437 ± 0.16
130. K1L  -0.439 ± 0.086
131. E10H  -0.442 ± 0.31
132. A6W  -0.48 ± 0.068
133. V3P  -0.485 ± 0.18
134. H8E  -0.518 ± 0.072
135. G9V  -0.575 ± 0.054
136. H8C  -0.584 ± 0.13
137. C5Y  -0.602 ± 0.11
138. C5E  -0.615 ± 0.064
139. C5G  -0.664 ± 0.054
140. H8T  -0.69 ± 0.087
141. H8G  -0.691 ± 0.049
142. K1C  -0.698 ± 0.2
143. H8A  -0.706 ± 0.058
144. K1W  -0.722 ± 0.14
145. H8I  -0.74 ± 0.18
146. C5H  -0.768 ± 0.32
147. C5M  -0.769 ± 0.12
148. H8R  -0.77 ± 0.062
149. C5P  -0.777 ± 0.11
150. C5K  -0.789 ± 0.12
151. C5D  -0.807 ± 0.21
152. H8N  -0.807 ± 0.26
153. C5Q  -0.812 ± 0.18
154. H8P  -0.819 ± 0.094
155. C5V  -0.839 ± 0.092
156. H8V  -0.852 ± 0.082
157. C5F  -0.871 ± 0.21
158. H8S  -0.901 ± 0.12
159. C5N  -0.922 ± 0.17
160. C5T  -0.954 ± 0.12
161. C5R  -0.978 ± 0.092
162. C5L  -0.999 ± 0.089
163. H8W  -1 ± 0.093
164. C5A  -1.06 ± 0.14
165. C5W  -1.06 ± 0.12
166. H8L  -1.08 ± 0.15
167. H8F  -1.09 ± 0.35
